Laboratory results as given in patent US20220363763A1.

Molecular target: human D1-D2 truncated LAG-3-ECD-human IgG1 fusion protein (human) (UniProt P18627)
Assay: ELISA on coated ΔD1-D2 huFc; EC50 table has no unit, x axis Ab(nM); fit value of a flat curve

Sequence of human D1-D2 truncated LAG-3-ECD-human IgG1 fusion protein (human) (P18627 253-450): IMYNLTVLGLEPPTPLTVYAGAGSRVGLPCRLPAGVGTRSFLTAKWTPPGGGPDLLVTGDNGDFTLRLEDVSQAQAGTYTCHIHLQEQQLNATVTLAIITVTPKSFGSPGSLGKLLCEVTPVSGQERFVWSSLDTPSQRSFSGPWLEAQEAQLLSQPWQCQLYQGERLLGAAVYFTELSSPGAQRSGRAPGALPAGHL

- EC50: 2.62 nM
B1: 147H mouse monoclonal antibody (antibody, V domains shown)
VH: QVQLQQSGSELVRPGTSVKISCKASGYTFTNYWLGWIKQRPGHGLEWIGDIYPGGDYINYNEKFKGKATLSADTSSSTAYMQLSSLTSEDSAVYFCARPNLPGDYWGQGTSVTVSS
VL: DIVMTQAAFSNPVTLGTSASISCRSSKSLLHSNGITYLYWYLQKPGQSPQLLIYQVSNLASGVPGRFSGSGSGTDFTLRISRVEAEDVGVYYCAQNLELPWTFGGGTKLEIK
